Measurements reported in the supplement of paper PMC9876800.

Test system: peptide library, one residue held at a place counted from the S/T acceptor
Assay: relative phosphorylation of the sub-library (ratio to the mean residue at this position); higher = residue favoured
In short: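 Human or orthologue kinase constructs, purified and recombinant, were incubated under kinase-specific conditions in 384-well plates with biotinylated degenerate peptide sub-libraries. Each sub-library fixed one residue at one position around a central Ser/Thr. Incubations lasted 90 min with peptides at 50 μM and 50 μM ATP spiked with γ-32P-ATP, after which spots on streptavidin membranes were phosphorimaged and quantified by densitometry. Relative sub-library phosphorylation is a ratio to the mean residue at that position.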

Chain of MAPK14, construct: Full length, human (Q16539 whole entry, looked up): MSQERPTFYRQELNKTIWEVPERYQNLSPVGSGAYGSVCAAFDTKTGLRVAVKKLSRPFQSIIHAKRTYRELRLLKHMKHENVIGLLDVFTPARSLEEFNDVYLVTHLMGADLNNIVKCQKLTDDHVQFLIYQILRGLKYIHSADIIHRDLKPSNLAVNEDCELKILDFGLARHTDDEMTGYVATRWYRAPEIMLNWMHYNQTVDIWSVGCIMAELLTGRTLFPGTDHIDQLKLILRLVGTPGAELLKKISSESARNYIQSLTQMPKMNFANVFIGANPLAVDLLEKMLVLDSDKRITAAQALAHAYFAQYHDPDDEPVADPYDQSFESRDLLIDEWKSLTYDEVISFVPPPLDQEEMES
Chain of MAPK8, construct: aa1-384, human (P45983 1-384, looked up): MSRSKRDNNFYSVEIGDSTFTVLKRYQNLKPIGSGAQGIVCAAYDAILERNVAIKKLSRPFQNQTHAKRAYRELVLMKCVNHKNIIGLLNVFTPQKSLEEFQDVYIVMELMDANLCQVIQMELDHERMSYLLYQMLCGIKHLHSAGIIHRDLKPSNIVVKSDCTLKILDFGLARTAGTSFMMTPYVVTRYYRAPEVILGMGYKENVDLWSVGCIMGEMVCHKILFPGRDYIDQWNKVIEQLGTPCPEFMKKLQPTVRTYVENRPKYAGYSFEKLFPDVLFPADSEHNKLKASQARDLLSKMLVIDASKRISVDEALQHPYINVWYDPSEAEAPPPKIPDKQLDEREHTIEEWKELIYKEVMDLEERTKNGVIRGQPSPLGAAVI

MAPK8, construct: aa1-384, human (from UniProt P45983)
relative phosphorylation
Settings	at +1	at +2	at +3	at +4	at -1	at -2	at -3	at -4	at -5
A fixed	0.237	0.912	1.46	1.17	1.03	2.05	1.17	1.13	1.18
D fixed	0.295	1.06	1.86	1.25	0.995	0.9	1.65	1.61	1.42
E fixed	0.222	0.814	1.86	1.34	0.888	0.556	1.5	1.41	1.06
F fixed	0.309	0.673	0.845	0.778	0.6	0.456	0.663	0.858	0.94
G fixed	0.676	1.22	1.49	1.07	1.31	0.724	1.1	1.03	1.06
H fixed	0.21	0.841	1.02	1.05	0.938	0.446	0.937	1.07	1.07
I fixed	0.247	1.67	0.698	1.11	0.674	1.41	0.797	0.728	0.763
K fixed	0.195	0.501	0.528	0.698	0.95	0.348	0.571	0.75	0.791
L fixed	0.322	1.45	0.881	1.02	1.45	2.55	0.898	0.753	0.685
M fixed	0.25	2	0.922	1	1.43	1.3	0.984	0.962	0.744
N fixed	0.191	0.793	0.84	0.819	0.861	0.469	1.06	0.846	0.826
P fixed	12.8	0.568	0.629	1.57	1.52	2.46	1.33	1.25	1.39
Q fixed	0.193	0.851	0.826	0.913	1.37	0.665	1.01	1.08	1.21
R fixed	0.18	0.575	0.619	0.547	0.886	0.484	0.879	0.778	0.974
V fixed	0.254	1.87	0.809	0.909	0.844	1.48	0.91	0.891	0.849
W fixed	0.196	0.53	0.878	0.937	0.582	0.338	0.727	0.993	0.858
Y fixed	0.213	0.663	0.837	0.81	0.671	0.381	0.808	0.865	1.19
pThr fixed	0.612	2.32	1.64	1.91	0.582	1.28	1.14	1.37	1.34
pTyr fixed	0.866	1.99	8.3	3.22	1.84	1.25	1.58	2.57	1.93

MAPK14, construct: Full length, human (from UniProt Q16539)
relative phosphorylation
Settings	at +1	at +2	at +3	at +4	at -1	at -2	at -3	at -4	at -5
A fixed	1.53	1.11	1.23	0.76	1.11	1.26	1.35	1.05	0.942
D fixed	0.147	0.674	0.665	0.783	0.616	0.425	0.833	0.947	0.761
E fixed	0.135	0.652	0.727	0.67	0.84	0.319	1.22	0.981	0.935
F fixed	0.403	0.864	1	1.47	0.795	0.59	0.769	1.01	0.997
G fixed	1.24	1.3	1.17	1.05	1.35	0.91	1.67	1.16	1.18
H fixed	0.346	1.11	0.846	0.89	1.06	0.499	1.01	0.859	1
I fixed	0.337	1.29	1.53	0.996	0.649	0.93	0.957	1.16	1.12
K fixed	0.34	1.33	0.654	1.06	0.922	0.594	0.908	1.09	1.24
L fixed	0.412	1.12	0.877	1.07	1.39	1.43	0.87	1.21	1.16
M fixed	0.408	0.967	0.926	1.11	1.55	1.14	1.07	1.15	1.05
N fixed	0.344	0.797	0.611	0.716	0.809	0.548	0.887	0.837	0.785
P fixed	9.61	0.697	1.64	0.88	1.14	4.82	1.27	1.03	1.27
Q fixed	0.277	0.903	0.673	0.895	1.1	0.686	0.892	0.898	0.871
R fixed	0.424	1.44	0.926	1.21	1.42	0.752	1.11	0.959	1.03
V fixed	0.366	1.09	1.43	0.801	0.755	1.09	0.727	0.767	0.757
W fixed	0.37	0.751	1.1	1.42	0.637	0.507	0.64	0.945	0.746
Y fixed	0.31	0.914	0.998	1.21	0.866	0.492	0.807	0.934	1.16
pThr fixed	0.432	1.1	0.892	0.516	0.341	0.619	1.02	0.89	0.939
pTyr fixed	0.397	0.625	1.16	0.674	0.632	0.435	0.834	0.943	1.33
